In publication PMC6555819, “Comprehensive study of nuclear receptor DNA binding provides a revised framework for understanding receptor specificity”:

Assays:
[1] = target: VDR:RXRa (Homo sapiens, UniProt P11473;P19793 full;full); assay: no ligand; PBM; 270 nM : 90 nM RXRa; PBS pH 7.4, 2% milk, 0.02% Triton X-100, 1 mM DTT, BSA, 0.4 mg/ml salmon testes DNA; conditions: tags: His kept;His cleaved; copies: 1;1; label: surface-attached array probe
Procedure, shortened: (§1)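 Binding z-scores were set against random background probes. The data came from custom Agilent 4×180K protein-binding microarrays carrying double-stranded probes with 34-nt variable regions, incubated 1 h with ligand-free nuclear receptor dimers. Partner-specific antibodies detected binding, and scanned fluorescence was regression-normalized.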

[2] = target: RARa:RXRa (Homo sapiens, UniProt P10276;P19793 full;full); assay: as above; conditions: tags: His kept;His cleaved; copies: 1;1; label: surface-attached array probe
Sequence of RARa:RXRa (P10276 whole entry, chain 1 of 2): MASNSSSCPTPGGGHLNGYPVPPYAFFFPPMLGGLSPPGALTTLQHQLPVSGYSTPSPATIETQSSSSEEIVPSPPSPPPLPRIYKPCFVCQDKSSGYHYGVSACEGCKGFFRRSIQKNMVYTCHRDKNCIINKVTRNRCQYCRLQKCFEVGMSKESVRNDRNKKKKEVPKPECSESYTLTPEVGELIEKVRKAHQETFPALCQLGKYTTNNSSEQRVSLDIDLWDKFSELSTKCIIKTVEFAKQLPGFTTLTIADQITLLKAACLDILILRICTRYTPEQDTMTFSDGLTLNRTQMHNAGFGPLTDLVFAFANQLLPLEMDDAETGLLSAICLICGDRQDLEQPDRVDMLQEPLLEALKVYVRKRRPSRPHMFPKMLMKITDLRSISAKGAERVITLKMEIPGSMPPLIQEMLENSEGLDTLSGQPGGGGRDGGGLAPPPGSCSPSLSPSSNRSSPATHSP
Sequence of RARa:RXRa (P19793 whole entry, chain 2 of 2): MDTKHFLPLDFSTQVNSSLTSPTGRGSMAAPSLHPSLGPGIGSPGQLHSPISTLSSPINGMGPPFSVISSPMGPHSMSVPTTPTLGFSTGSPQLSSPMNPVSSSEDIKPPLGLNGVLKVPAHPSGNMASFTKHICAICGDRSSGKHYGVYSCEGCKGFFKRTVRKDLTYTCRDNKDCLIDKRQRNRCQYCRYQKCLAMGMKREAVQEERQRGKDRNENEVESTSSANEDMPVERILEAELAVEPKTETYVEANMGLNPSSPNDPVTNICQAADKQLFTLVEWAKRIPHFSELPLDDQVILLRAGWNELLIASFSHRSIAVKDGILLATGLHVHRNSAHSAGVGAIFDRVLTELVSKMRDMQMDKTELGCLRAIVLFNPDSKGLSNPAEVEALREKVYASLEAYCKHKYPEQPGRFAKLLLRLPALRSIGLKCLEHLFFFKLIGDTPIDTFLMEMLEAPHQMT
Procedure, shortened: as §1

[3] = target: RXRa (Homo sapiens, UniProt P19793); assay: no ligand; PBM; 180 nM; PBS pH 7.4, 2% milk, 0.02% Triton X-100, 1 mM DTT, BSA, 0.4 mg/ml salmon testes DNA; conditions: tags: His cleaved; chain copies: 2; label: surface-attached array probe
Sequence of RXRa (P19793 whole entry): as the sequence (P19793 whole entry, chain 2 of 2) above

[4] = target: RARb:RXRa (Homo sapiens, UniProt P10826;P19793 full;full); assay: no ligand; PBM; 270 nM : 90 nM RXRa; PBS pH 7.4, 2% milk, 0.02% Triton X-100, 1 mM DTT, BSA, 0.4 mg/ml salmon testes DNA; conditions: tags: His kept;His cleaved; copies: 1;1; label: surface-attached array probe
Sequence of RARb:RXRa (P10826 whole entry, chain 1 of 2): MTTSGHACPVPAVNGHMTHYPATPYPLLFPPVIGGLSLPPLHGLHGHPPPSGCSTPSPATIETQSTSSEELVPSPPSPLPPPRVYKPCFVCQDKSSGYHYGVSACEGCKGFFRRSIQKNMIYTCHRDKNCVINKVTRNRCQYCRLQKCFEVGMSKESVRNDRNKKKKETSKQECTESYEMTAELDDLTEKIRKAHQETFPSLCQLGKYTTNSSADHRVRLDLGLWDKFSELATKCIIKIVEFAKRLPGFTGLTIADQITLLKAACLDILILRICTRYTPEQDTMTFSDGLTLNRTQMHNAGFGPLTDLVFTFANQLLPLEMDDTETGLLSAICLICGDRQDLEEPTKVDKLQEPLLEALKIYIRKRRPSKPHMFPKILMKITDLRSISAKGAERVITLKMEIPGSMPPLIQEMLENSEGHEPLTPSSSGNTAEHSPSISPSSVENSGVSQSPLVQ
Sequence of RARb:RXRa (P19793 whole entry, chain 2 of 2): as the sequence (P19793 whole entry, chain 2 of 2) above
Procedure, shortened: as §1

[5] = target: RARg:RXRa (Homo sapiens, UniProt P13631;P19793 full;full); assay: as above; conditions: tags: His kept;His cleaved; copies: 1;1; label: surface-attached array probe
Sequence of RARg:RXRa (P13631 whole entry, chain 1 of 2): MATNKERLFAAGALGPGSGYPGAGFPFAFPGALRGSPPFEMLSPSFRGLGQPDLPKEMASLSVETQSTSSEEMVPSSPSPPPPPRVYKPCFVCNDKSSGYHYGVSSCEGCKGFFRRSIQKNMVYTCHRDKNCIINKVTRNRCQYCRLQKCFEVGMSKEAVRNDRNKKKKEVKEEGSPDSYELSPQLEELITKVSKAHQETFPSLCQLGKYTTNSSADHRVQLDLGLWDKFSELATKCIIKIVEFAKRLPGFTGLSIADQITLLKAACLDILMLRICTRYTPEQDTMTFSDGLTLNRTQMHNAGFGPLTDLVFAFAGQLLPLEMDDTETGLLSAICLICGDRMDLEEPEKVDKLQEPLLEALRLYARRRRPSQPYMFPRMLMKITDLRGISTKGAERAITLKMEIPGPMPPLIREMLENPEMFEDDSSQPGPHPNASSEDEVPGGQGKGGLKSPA
Sequence of RARg:RXRa (P19793 whole entry, chain 2 of 2): as the sequence (P19793 whole entry, chain 2 of 2) above
Procedure, shortened: as §1

[6] = target: FXR:RXRa (Homo sapiens, UniProt Q96RI1;P19793 full;full); assay: as above; conditions: tags: His kept;His cleaved; copies: 1;1; label: surface-attached array probe
Sequence of FXR:RXRa (Q96RI1 whole entry, chain 1 of 2): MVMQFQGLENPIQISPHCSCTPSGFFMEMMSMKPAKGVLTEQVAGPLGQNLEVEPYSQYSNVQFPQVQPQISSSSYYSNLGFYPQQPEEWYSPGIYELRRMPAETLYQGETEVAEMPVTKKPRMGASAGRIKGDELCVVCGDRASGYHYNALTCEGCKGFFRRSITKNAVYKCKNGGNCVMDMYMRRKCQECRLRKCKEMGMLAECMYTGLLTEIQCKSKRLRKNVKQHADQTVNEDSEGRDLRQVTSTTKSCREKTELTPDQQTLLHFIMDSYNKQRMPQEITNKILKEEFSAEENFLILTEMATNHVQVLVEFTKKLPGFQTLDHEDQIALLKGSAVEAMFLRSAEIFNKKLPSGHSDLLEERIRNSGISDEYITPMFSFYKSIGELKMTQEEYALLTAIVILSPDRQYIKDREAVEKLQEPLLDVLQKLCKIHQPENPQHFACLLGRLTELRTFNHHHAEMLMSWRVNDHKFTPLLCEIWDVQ
Sequence of FXR:RXRa (P19793 whole entry, chain 2 of 2): as the sequence (P19793 whole entry, chain 2 of 2) above
Procedure, shortened: as §1

[7] = target: PPARa:RXRa (Homo sapiens, UniProt Q07869;P19793 full;full); assay: as above; conditions: tags: GST kept;His cleaved; copies: 1;1; label: surface-attached array probe
Sequence of PPARa:RXRa (Q07869 whole entry, chain 1 of 2): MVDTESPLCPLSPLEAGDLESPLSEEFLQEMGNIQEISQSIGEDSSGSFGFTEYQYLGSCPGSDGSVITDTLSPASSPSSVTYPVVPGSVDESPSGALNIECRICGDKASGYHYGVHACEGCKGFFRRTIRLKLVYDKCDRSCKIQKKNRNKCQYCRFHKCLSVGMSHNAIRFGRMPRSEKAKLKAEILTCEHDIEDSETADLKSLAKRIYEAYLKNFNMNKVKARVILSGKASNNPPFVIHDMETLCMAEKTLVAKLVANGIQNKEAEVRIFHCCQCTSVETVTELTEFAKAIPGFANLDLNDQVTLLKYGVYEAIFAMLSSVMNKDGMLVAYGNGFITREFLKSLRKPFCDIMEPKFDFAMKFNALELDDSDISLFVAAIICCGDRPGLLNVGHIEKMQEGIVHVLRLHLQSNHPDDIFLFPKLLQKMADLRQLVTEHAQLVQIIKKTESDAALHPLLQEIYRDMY
Sequence of PPARa:RXRa (P19793 whole entry, chain 2 of 2): as the sequence (P19793 whole entry, chain 2 of 2) above
Procedure, shortened: as §1

Sequence of VDR:RXRa (P11473 whole entry, chain 1 of 2): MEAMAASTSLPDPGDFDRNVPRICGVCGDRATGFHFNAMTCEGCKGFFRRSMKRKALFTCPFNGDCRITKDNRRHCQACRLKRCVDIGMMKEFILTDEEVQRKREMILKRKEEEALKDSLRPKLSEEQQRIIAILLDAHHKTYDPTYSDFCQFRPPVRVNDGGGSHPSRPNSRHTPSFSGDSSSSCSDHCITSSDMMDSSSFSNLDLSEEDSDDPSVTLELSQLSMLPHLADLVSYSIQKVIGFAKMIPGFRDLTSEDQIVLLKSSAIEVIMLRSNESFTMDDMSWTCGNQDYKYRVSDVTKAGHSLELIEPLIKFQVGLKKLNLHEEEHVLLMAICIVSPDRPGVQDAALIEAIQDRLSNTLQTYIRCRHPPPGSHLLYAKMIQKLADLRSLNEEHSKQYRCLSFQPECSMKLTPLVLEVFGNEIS
Sequence of VDR:RXRa (P19793 whole entry, chain 2 of 2): as the sequence (P19793 whole entry, chain 2 of 2) above

| Binder | binding signal [1] | binding signal [2] | binding signal [3] | binding signal [4] | binding signal [5] | binding signal [6] | binding signal [7] |
| --- | --- | --- | --- | --- | --- | --- | --- |
| NRC3_random_hg19_127_o1 (dsDNA) DNA 1: GCATGAGGTACTGATACATGCTACAATGTGTATGTAGCGATTGACAGCGTAGAATGAAGG DNA 2: CCTTCATTCTACGCTGTCAATCGCTACATACACATTGTAGCATGTATCAGTACCTCATGC | -0.33 PBM z-score against 500 random probes | -0.55 PBM z-score against 500 random probes | – | – | – | – | – |
| NRC3_wobSeed53_DR2_A17G_o1 (dsDNA) DNA 1: GCCCTTACGGGTCACGGGGTTATAGCACGACGAGCGGCGATTGACAGCGTAGAATGAAGG DNA 2: CCTTCATTCTACGCTGTCAATCGCCGCTCGTCGTGCTATAACCCCGTGACCCGTAAGGGC | – | 7.46 PBM z-score against 500 random probes | 8.24 PBM z-score against 500 random probes | – | – | – | – |
| NRC3_wobSeed28_DR1_T8G_o1 (dsDNA) DNA 1: GCCCTACGGGGCCAAAGGTCATTGATTCCAATGCTCGCGATTGACAGCGTAGAATGAAGG DNA 2: CCTTCATTCTACGCTGTCAATCGCGAGCATTGGAATCAATGACCTTTGGCCCCGTAGGGC | – | 7.56 PBM z-score against 500 random probes | 7.78 PBM z-score against 500 random probes | – | – | – | – |
| NRC3_random_hg19_304_o1 (dsDNA) DNA 1: GCGGCTGTTAGCGCTCATCTCTGTGTGCCTTCACAGGCGATTGACAGCGTAGAATGAAGG DNA 2: CCTTCATTCTACGCTGTCAATCGCCTGTGAAGGCACACAGAGATGAGCGCTAACAGCCGC | – | -1 PBM z-score against 500 random probes | – | -1.19 PBM z-score against 500 random probes | – | – | – |
| NRC3_random_hg19_386_o1 (dsDNA) DNA 1: GCTCCCTTCCCTTCCCTTCCCTTCCCACAACCACTGGCGATTGACAGCGTAGAATGAAGG DNA 2: CCTTCATTCTACGCTGTCAATCGCCAGTGGTTGTGGGAAGGGAAGGGAAGGGAAGGGAGC | – | 0.49 PBM z-score against 500 random probes | -0.1 PBM z-score against 500 random probes | – | -0.29 PBM z-score against 500 random probes | – | – |
| NRC3_wobSeed45_DR1_A20G_o1 (dsDNA) DNA 1: GCTGTCAAAGTTCAAAGGTGACGTAAGTATCCACACGCGATTGACAGCGTAGAATGAAGG DNA 2: CCTTCATTCTACGCTGTCAATCGCGTGTGGATACTTACGTCACCTTTGAACTTTGACAGC | – | 7.89 PBM z-score against 500 random probes | 8.27 PBM z-score against 500 random probes | – | – | 7.78 PBM z-score against 500 random probes | – |
| NRC3_wobSeed37_DR1_G4A_o1 (dsDNA) DNA 1: GCCATCCAAGGTCAAAGGTCAGTGAAGAGATGACGGGCGATTGACAGCGTAGAATGAAGG DNA 2: CCTTCATTCTACGCTGTCAATCGCCCGTCATCTCTTCACTGACCTTTGACCTTGGATGGC | – | 9.27 PBM z-score against 500 random probes | – | 6.38 PBM z-score against 500 random probes | – | – | 7.54 PBM z-score against 500 random probes |
| NRC3_wobSeed37_DR1_T5G_o1 (dsDNA) DNA 1: GCCGGCCAAGGTCAAAGGTCAGTGAAGAGATGACGGGCGATTGACAGCGTAGAATGAAGG DNA 2: CCTTCATTCTACGCTGTCAATCGCCCGTCATCTCTTCACTGACCTTTGACCTTGGCCGGC | – | 9.26 PBM z-score against 500 random probes | 10.7 PBM z-score against 500 random probes | – | – | – | – |
| NRC3_random_hg19_281_o1 (dsDNA) DNA 1: GCTTGTTGCTTCTGTTCTACGCCAGTGACTTGGAAAGCGATTGACAGCGTAGAATGAAGG DNA 2: CCTTCATTCTACGCTGTCAATCGCTTTCCAAGTCACTGGCGTAGAACAGAAGCAACAAGC | -0.16 PBM z-score against 500 random probes | -0.05 PBM z-score against 500 random probes | – | – | – | – | -0.08 PBM z-score against 500 random probes |
| NRC3_wobSeed36_DR1_G12T_o1 (dsDNA) DNA 1: GCCCGACTGGGTCAAAGGTTACCATACTCAGTACGAGCGATTGACAGCGTAGAATGAAGG DNA 2: CCTTCATTCTACGCTGTCAATCGCTCGTACTGAGTATGGTAACCTTTGACCCAGTCGGGC | – | 7.7 PBM z-score against 500 random probes | 7.96 PBM z-score against 500 random probes | – | – | – | 6.73 PBM z-score against 500 random probes |
| NRC3_wobSeed2_DR0_G17C_o1 (dsDNA) DNA 1: GCCCTAGTTGGTCAAGCTCACACACGCTATAGGTACGCGATTGACAGCGTAGAATGAAGG DNA 2: CCTTCATTCTACGCTGTCAATCGCGTACCTATAGCGTGTGTGAGCTTGACCAACTAGGGC | – | 0.43 PBM z-score against 500 random probes | 0.35 PBM z-score against 500 random probes | – | – | – | – |
